Data from patent US20210268016A1.

Target: recombinant full-length human PrP^C (AA23-231) (human) (UniProt P04156)

Substance: Poly-d-glutamic acid sodium salt (peptide)
- IC50: > 1000 nM
